The values below come from PMC5041093, “Acidic Residues Control the Dimerization of the N-terminal Domain of Black Widow Spiders’ Major Ampullate Spidroin 1” (Scientific Reports, 2016).

Data set [1] concerns the target NRN1_(L.h.) variant E114Q (Latrodectus hesperus). Description: NMR 15N relaxation (T1, T2; rotational correlation time); 15N-labelled E114Q, 22 mM sodium phosphate pH 7.2 without salt, 10% D2O; molecular weight estimated from the rotational correlation time.
The target is the same in data set [2]. Put plainly: SEC-MALS; Superdex 200 10/300 GL, 20 mM sodium phosphate pH 7.2 without NaCl, 71.2 μM protein injected; monomer to dimer. (In general: In gel filtration, larger molecules generally elute earlier.)
Data set [3] deals with the molecule itself. Put plainly: SEC-MALS; Superdex 200 10/300 GL, 20 mM sodium phosphate pH 6.0 without NaCl, 71.2 μM protein injected; monomer to dimer.

Consider “NRN1_(L.h.) variant E114Q (domain or fragment)”, for which the stoichiometry N in data set [1] and in data set [2] was 2 in each case.

B1: amino-terminal domain of Latrodectus hesperus major ampullate spidroin 1, wildtype (domain or fragment)
chain: QANTPWSSKANADAFINSFISAASNTGSFSQDQMEDMSLIGNTLMAAMDNMGGRITPSKLQALDMAFASSVAEIAASEGGDLGVTTNAIADALTSAFYQTTGVVNSRFISEIRSLIGMFAQASANDVYASAGS
notes: non-repetitive amino-terminal domain (NRN1) of major ampullate spidroin 1 (MaSp1), Latrodectus hesperus; also called wtNRN1_(L.h.); NRN1_(L.h.); source: E. coli BL21 (DE3), purified (nickel-NTA, SEC)
Consider B1, for which the “stoichiometry N” value in data set [3] stood at 2.

In general, stoichiometry N refers to a count of units in the complex or per binding partner.
